For 16 molecules, Kd results are on record in PMC12051234, “NrdR in Streptococcus and Listeria spp.: DNA Helix Phase Dependence of the Bacterial Ribonucleotide Reductase Repressor”.

The labels stand for the following.
B1: Synt 14 bp spacer (dsDNA)
DNA 1: GCCAAACACAACATCTAGTGGTTGGATAGCTGAGCACACAACATCTAGTGGACCTC
DNA 2: GAGGTCCACTAGATGTTGTGTGCTCAGCTATCCAACCACTAGATGTTGTGTTTGGC
B2: Synt 12 bp spacer (dsDNA)
DNA 1: GCCAAACACAACATCTAGTGGTTGGATAGGAGCACACAACATCTAGTGGACCTC
DNA 2: GAGGTCCACTAGATGTTGTGTGCTCCTATCCAACCACTAGATGTTGTGTTTGGC
B3: Synt 20 bp spacer (dsDNA)
DNA 1: GCCAAACACAACATCTAGTGGTTGGATAGCGTGACAGTAGCACACAACATCTAGTGGACCTC
DNA 2: GAGGTCCACTAGATGTTGTGTGCTACTGTCACGCTATCCAACCACTAGATGTTGTGTTTGGC
B4: Synt 25 bp spacer (dsDNA)
DNA 1: GCCAAACACAACATCTAGTGGTTGGATAGCGTGAAGTTCACCTAGCACACAACATCTAGTGGACCTC
DNA 2: GAGGTCCACTAGATGTTGTGTGCTAGGTGAACTTCACGCTATCCAACCACTAGATGTTGTGTTTGGC
B5: Synt 16 bp spacer (dsDNA)
DNA 1: GCCAAACACAACATCTAGTGGTTGGATAGCGTGAAGCACACAACATCTAGTGGACCTC
DNA 2: GAGGTCCACTAGATGTTGTGTGCTTCACGCTATCCAACCACTAGATGTTGTGTTTGGC
B6: Synt 19 bp spacer (dsDNA)
DNA 1: GCCAAACACAACATCTAGTGGTTGGATAGCGTGAAGTAGCACACAACATCTAGTGGACCTC
DNA 2: GAGGTCCACTAGATGTTGTGTGCTACTTCACGCTATCCAACCACTAGATGTTGTGTTTGGC
B7: Synt 13 bp spacer (dsDNA)
DNA 1: GCCAAACACAACATCTAGTGGTTGGATAGTGAGCACACAACATCTAGTGGACCTC
DNA 2: GAGGTCCACTAGATGTTGTGTGCTCACTATCCAACCACTAGATGTTGTGTTTGGC
B8: Synt 24 bp spacer (dsDNA)
DNA 1: GCCAAACACAACATCTAGTGGTTGGATAGCGTGAATTCACCTAGCACACAACATCTAGTGGACCTC
DNA 2: GAGGTCCACTAGATGTTGTGTGCTAGGTGAATTCACGCTATCCAACCACTAGATGTTGTGTTTGGC
B9: Synt 18 bp spacer (dsDNA)
DNA 1: GCCAAACACAACATCTAGTGGTTGGATAGCGTGAAGTGCACACAACATCTAGTGGACCTC
DNA 2: GAGGTCCACTAGATGTTGTGTGCACTTCACGCTATCCAACCACTAGATGTTGTGTTTGGC
B10: Synt 15 bp spacer (dsDNA)
DNA 1: GCCAAACACAACATCTAGTGGTTGGATAGCGTGAGCACACAACATCTAGTGGACCTC
DNA 2: GAGGTCCACTAGATGTTGTGTGCTCACGCTATCCAACCACTAGATGTTGTGTTTGGC
B11: Synt 26 bp spacer (dsDNA)
DNA 1: GCCAAACACAACATCTAGTGGTTGGATAGCGTGAAGTTCCACCTAGCACACAACATCTAGTGGACCTC
DNA 2: GAGGTCCACTAGATGTTGTGTGCTAGGTGGAACTTCACGCTATCCAACCACTAGATGTTGTGTTTGGC
B12: Synt 17 bp spacer (dsDNA)
DNA 1: GCCAAACACAACATCTAGTGGTTGGATAGCGTGAAGGCACACAACATCTAGTGGACCTC
DNA 2: GAGGTCCACTAGATGTTGTGTGCCTTCACGCTATCCAACCACTAGATGTTGTGTTTGGC
B13: Sth nrdHEF (16 bp spacer) (dsDNA)
DNA 1: TCAAAACACAAGATATAGGGTTGTGTTTCAATACTAAACACAAAATATTGTATTCCTT
DNA 2: AAGGAATACAATATTTTGTGTTTAGTATTGAAACACAACCCTATATCTTGTGTTTTGA
B14: Sth nrdDG (16 bp spacer) (dsDNA)
DNA 1: TCGAAAATCAATATATAGTGGTTGAGATAAAAATATACCACAATATATTGATTTTCCT
DNA 2: AGGAAAATCAATATATTGTGGTATATTTTTATCTCAACCACTATATATTGATTTTCGA
B15: Eco nrdHIEF box 1 duplicated (dsDNA)
DNA 1: GTCTCTTGCTATATATTGTGTGGTTGAATCTTTTTTTTGCTATATATTGTGTCTCTG
DNA 2: CAGAGACACAATATATAGCAAAAAAAAGATTCAACCACACAATATATAGCAAGAGAC
B16: Eco nrdHIEF box 2 duplicated (dsDNA)
DNA 1: GTCTCCAACTACATCTAGTATGGTTGAATCTTTTTTCAACTACATCTAGTATCTCTG
DNA 2: CAGAGATACTAGATGTAGTTGAAAAAAGATTCAACCATACTAGATGTAGTTGGAGAC

The target of one data set is T1, ScoNrdR (Streptomyces coelicolor, UniProt O69980 1-182).
T1 sequence: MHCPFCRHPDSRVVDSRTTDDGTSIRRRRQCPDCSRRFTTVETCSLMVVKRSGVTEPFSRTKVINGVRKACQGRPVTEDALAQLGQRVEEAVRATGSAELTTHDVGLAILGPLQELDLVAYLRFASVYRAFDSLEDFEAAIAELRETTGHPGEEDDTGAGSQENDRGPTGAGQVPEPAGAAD
The data set is described as follows: MST; dATP + ATP; MST, temperature not stated. Lmo: 25 mM Bis-Tris propane pH 6.5, 100 mM KCl, 5 mM MgCl2, 5% glycerol, 1 mM DTT, 0.05% Tween 20, one nucleotide 1 mM or two at 0.5 mM each; Spn: 25 mM HEPES pH 7.2, 250 mM NaCl, 2.5 mM MgCl2, 15% glycerol, 2 mM DTT, 0.1 mg/mL BSA, 0.05% Tween 20, 0.5 mM ATP and/or dATP; Eco: 25 mM Tris pH 8.5, 100 mM NaCl, 7 mM MgCl2, 1 mM DTT, 0.025% Tween 20, 1 mM ATP + 1 mM dATP; …. To be noted: protein: recombinant; chain copies: 4; label: 5'-Cy5 sense; blunt.
In the case of B1, the Kd (usually the concentration at which binding is half-saturated) worked out at 154 ± 28 nM.

With B2, the Kd came to 580 ± 79 nM.

On to B3, for which the Kd amounted to 2190 ± 449 nM.

Regarding B4, the Kd was determined as 4050 ± 272 nM.

For B5, the Kd was found to be 28 ± 7 nM.

Consider B6, for which the dissociation constant Kd came to 1660 ± 221 nM.

Turning to B7, the dissociation constant Kd amounted to 158 ± 19 nM.

Regarding B8, the dissociation constant (Kd) is 763 ± 104 nM.

With B9, the Kd worked out at 476 ± 80 nM.

As for B10, the dissociation constant Kd worked out at 45 ± 13 nM.

Consider B11, for which the Kd stood at 4400 ± 355 nM.

For B12, the dissociation constant (Kd) stood at 21 ± 7 nM.

In a further data set the target is T2, SpnNrdR (Streptococcus pneumoniae TIGR4, UniProt P67318 1-157).
T2 sequence: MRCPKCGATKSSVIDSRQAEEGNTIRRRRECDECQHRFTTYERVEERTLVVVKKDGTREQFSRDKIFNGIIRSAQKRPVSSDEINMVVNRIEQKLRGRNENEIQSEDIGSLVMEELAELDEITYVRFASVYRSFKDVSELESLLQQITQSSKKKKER
The data set is described as above. The note with it: protein: recombinant; tags: C-terminal His6; chain copies: 4; label: 5'-Cy5 sense; blunt.
Take B1: the dissociation constant Kd was determined as 0.699 ± 0.109 µM.

With B13, the Kd was 0.8 ± 0.25 µM.

Regarding B14, the equilibrium dissociation constant (Kd) turned out to be 1.15 ± 0.32 µM.

Turning to B2, the Kd worked out at 5.06 ± 0.511 µM.

On to B3, for which the Kd came out at 12.3 ± 0.388 µM.

Turning to B4, the Kd is 4.37 ± 0.343 µM.

B5: the Kd stood at 0.041 ± 0.011 µM.

B6: the Kd worked out at 11.6 ± 0.34 µM.

Turning to B7, the Kd amounted to 3.94 ± 0.29 µM.

B8: the Kd is 9.2 ± 0.374 µM.

With B9, the Kd came out at 6.6 ± 0.536 µM.

B10: the dissociation constant Kd is 0.055 ± 0.014 µM.

With B11, the dissociation constant (Kd) was determined as 2.91 ± 0.225 µM.

On to B12, for which the dissociation constant (Kd) amounted to 0.34 ± 0.083 µM.

A further data set concerns the target T3, LmoNrdR (Listeria monocytogenes serotype 1/2a …, UniProt Q8Y6W9 1-154).
T3 sequence: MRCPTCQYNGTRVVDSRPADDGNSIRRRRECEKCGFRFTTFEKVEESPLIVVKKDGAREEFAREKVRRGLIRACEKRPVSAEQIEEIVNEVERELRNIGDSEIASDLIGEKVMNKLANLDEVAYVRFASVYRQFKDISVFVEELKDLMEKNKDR
Described as above. To be noted: protein: recombinant; tags: C-terminal His6; chain copies: 4; label: 5'-Cy5 sense; blunt.
Regarding B1, the Kd was 2 ± 0.5 nM.

With B2, the equilibrium dissociation constant (Kd) was 37 ± 6 nM.

In the case of B3, the Kd was 122 ± 10 nM.

For the molecule B4, the Kd is 25 ± 12 nM.

On to B5, for which the Kd was 1 ± 0.4 nM.

For the molecule B6, the Kd came to 51 ± 7 nM.

As for B7, the dissociation constant (Kd) came to 11 ± 1.8 nM.

For the molecule B8, the Kd is 26 ± 3 nM.

On to B9, for which the Kd was 3 ± 0.6 nM.

Regarding B10, the dissociation constant (Kd) is 1 ± 0.2 nM.

Turning to B12, the dissociation constant Kd amounted to 1 ± 0.4 nM.

Another data set deals with T4, EcoNrdR (Escherichia coli, UniProt P0A8D0 1-149).
T4 sequence: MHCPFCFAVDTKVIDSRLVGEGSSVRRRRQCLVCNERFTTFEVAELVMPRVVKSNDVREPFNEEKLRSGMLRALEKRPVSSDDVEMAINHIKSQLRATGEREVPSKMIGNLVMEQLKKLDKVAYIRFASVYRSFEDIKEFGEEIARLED
Described as above. To be noted: protein: recombinant; chain copies: 4; label: 5'-Cy5 sense; blunt.
On to B1, for which the Kd was found to be 169 ± 27 nM.

Take B15: the Kd is 213 ± 40 nM.

As to B2, the Kd came to 1380 ± 309 nM.

Consider B3, for which the Kd stood at 3320 ± 540 nM.

As for B16, the Kd amounted to 99 ± 33 nM.

For B4, the Kd was determined as 326 ± 44 nM.

On to B5, for which the Kd came to 82 ± 22 nM.

As to B6, the Kd stood at 601 ± 113 nM.

For B7, the dissociation constant (Kd) came to 117 ± 24 nM.

Take B8: the dissociation constant Kd came out at 141 ± 34 nM.

Regarding B9, the Kd came out at 66 ± 12 nM.

Turning to B11, the Kd is 24 ± 7 nM.

With B12, the Kd amounted to 45 ± 6 nM.
